Reference: article PMC2636890

Key:
[1] = target: soluble recombinant form of HCV E2 glycoprotein (sE2), derived from H77-E2, harbouring a His-tag (UniProt P27958); test: flow cytometry on cells (sE2 binding); details: BRL3A cells expressing only the indicated SR-BI mutant; sE2-containing medium vs. sE2-free medium; mean±SD, n = 3; parent: est. 100; read off a plot
[2] = target: SR-BI-Short, a shorter isoform of SR-BI produced by alternative splicing that removes 100 amino acids of the ectodomain (human) (UniProt Q8WTV0)
Sequence of UniProt Q8WTV0 (Q8WTV0 other isoform, or with tags, fused parts or gaps): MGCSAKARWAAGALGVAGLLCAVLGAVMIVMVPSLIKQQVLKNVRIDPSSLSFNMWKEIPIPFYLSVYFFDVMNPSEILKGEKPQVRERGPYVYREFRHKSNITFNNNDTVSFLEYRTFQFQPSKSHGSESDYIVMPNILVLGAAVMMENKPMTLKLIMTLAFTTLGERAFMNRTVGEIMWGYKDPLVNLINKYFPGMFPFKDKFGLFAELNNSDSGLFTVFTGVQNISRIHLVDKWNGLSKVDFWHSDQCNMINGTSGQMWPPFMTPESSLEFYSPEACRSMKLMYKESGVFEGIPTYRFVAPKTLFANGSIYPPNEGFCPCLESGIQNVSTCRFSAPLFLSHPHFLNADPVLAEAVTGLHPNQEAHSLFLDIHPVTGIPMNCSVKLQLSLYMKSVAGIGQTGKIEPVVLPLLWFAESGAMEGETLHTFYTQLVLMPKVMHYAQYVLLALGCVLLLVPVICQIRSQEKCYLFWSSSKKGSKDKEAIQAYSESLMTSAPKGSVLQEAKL

Substance | percent of parent (% of wt SR-BI (set to 100)) [1] | entry of HCVpp (H77 E1E2) into BRL3A-CD81-CLDN1 cells expressing the SR-BI form, fold reduction against wt SR-BI [2] [fold]
human scavenger receptor class B type I (SR-BI), wild type (from UniProt Q8WTV0-2) SES | 100 | –
soluble recombinant form of HCV E2 glycoprotein (sE2), derived from H77-E2, harbouring a His-tag (from UniProt P27958 384-661) (domain or fragment) | – | > 10
